Source: article doi:10.1101/296376 (bioRxiv, 2018)

Biological target: Miro1-ABC (aa 1-592), C-terminal 6xHis-tag (human, UniProt Q8IXI2 1-592)
Assay: pull-down

Sequence of Miro1-ABC (aa 1-592), C-terminal 6xHis-tag (Q8IXI2 1-592): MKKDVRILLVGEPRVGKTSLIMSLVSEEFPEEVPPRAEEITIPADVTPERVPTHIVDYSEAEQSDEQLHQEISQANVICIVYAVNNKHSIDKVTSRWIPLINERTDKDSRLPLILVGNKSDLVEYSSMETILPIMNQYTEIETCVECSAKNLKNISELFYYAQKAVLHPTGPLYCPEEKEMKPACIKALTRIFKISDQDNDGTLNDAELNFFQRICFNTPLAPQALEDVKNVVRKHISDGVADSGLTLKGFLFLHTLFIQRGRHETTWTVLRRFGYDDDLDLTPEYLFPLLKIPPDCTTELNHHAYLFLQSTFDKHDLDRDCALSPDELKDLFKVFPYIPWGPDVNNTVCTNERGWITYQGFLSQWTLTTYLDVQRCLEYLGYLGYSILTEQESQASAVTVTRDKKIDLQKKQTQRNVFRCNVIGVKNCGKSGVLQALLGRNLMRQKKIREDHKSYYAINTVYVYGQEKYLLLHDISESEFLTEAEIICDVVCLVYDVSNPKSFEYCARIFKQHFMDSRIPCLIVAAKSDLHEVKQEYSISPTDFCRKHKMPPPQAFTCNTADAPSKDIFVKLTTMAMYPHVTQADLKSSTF

B1: Myo19 C-tail (aa 898-970)-FLAG (domain or fragment)
chain: not shown
binding result: binds
